Test results published in paper PMC4385862.

Key:
[1] = phosphorylation at Y342
β1 integrin = β1 integrin (UniProt P05556); experiment: co-immunoprecipitation and Western blot; settings: reference: wild-type GFP-K18; sites S52

binding against the reference (β1 integrin) | Substance | other [1]
 | ClC-3: Y342F | decreases
lost | keratin 18 (K18) (from UniProt P05783) S52A GFP-K18 | 
